According to US20240209086A1 (PETMEDIX, published 2024):
Changes are numbered by the printed parent chain.

B1: PMX172VH/PMX263VH/PMX172VL (bispecific antibody, V domains shown)
VH 1: EVQLVESGGDLVKPGGSLRLSCVASGFTFSSYHMSWVRQAPGKGLQWVAYSNSGGSRTSYADAVKGRFTISRDNAKNTLYLQMNSLRAEDTAVYYCASEGGGGRYGYKDYGMDYWGHGTSLFVSS
VH 2: EVQLVESGGDLVKPGGSLRLSCVASGFTFSRYYMNWVRQAPGKGLQWVAYINSGGSSTSYADAVKGRFTISRDNAKNTLYLQMNSLRADDTAVYYCTSFDYWGQGTLVTVSS
VL: SYVLTQLPSKNVTLKQPAHITCGGDNIGSKSVHWYQQKLGQAPVLIIYYDSSRPTGIPERFSGANSGNTATLTISGALAEDEADYYCQVWDSSAKAWVFGEGTQLTVL
B2: PMX172VH/PMX264VH/PMX172VL (bispecific antibody, V domains shown)
VH 1: B1 VH 1
VH 2: B1 VH 2 with Y33H, N35S, Y50F, S53T, G55R, S56M, S59N, D89E, F99L
VL: B1 VL
B3: PMX172VH/PMX273VH/PMX172VL (bispecific antibody, V domains shown)
VH 1: B1 VH 1
VH 2: EMQLVESGGDLVKPGGSLRLSCVASGFTFSRYHMSWVRQAPGKGLQWVAYIDSDGSPTNYADAVKGRFTISRDNAKNTLYLQMNSLRAEDTAVYYCTTYDQWGQGTLVTVSS
VL: B1 VL
B4: PMX172VH/PMX262VH/PMX172VL (bispecific antibody, V domains shown)
VH 1: B1 VH 1
VH 2: B1 VH 2 with F27I, S57P, S59T, D89E
VL: B1 VL
B5: PMX172VH/PMX230VH/PMX172VL (bispecific antibody, V domains shown)
VH 1: B1 VH 1
VH 2: B1 VH 2 with Q3H, F27I, S30N, A40T, N52D, S57P, S59T, D89E
VL: B1 VL
B6: PMX172VH/PMX233VH/PMX172VL (bispecific antibody, V domains shown)
VH 1: B1 VH 1
VH 2: B3 VH 2 with H33Y, S35N, D54G, T91A, V93I, Y99F, Q101F
VL: B1 VL
B7: PMX172VH/PMX234VH/PMX172VL (bispecific antibody, V domains shown)
VH 1: B1 VH 1
VH 2: B1 VH 2 with V2L, M34L, Y50F, N52T, S59N, D89E, Y101S
VL: B1 VL
B8: PMX172VH/PMX235VH/PMX172VL (bispecific antibody, V domains shown)
VH 1: B1 VH 1
VH 2: B1 VH 2 with F27I, S53T, G55E, S59I, A61S, D89E, S98T, F99L, D100E
VL: B1 VL
B9: PMX172VH/PMX236VH/PMX172VL (bispecific antibody, V domains shown)
VH 1: B1 VH 1
VH 2: B1 VH 2 with F27L, N52D, S57P, S59N, D89E, T97S
VL: B1 VL
B10: PMX172VH/PMX239VH/PMX172VL (bispecific antibody, V domains shown)
VH 1: B1 VH 1
VH 2: B1 VH 2 with Y50F, N52T, A61G, D89E
VL: B1 VL
B11: PMX172VH/PMX240VH/PMX172VL (bispecific antibody, V domains shown)
VH 1: B1 VH 1
VH 2: B1 VH 2 with F27L, Y33H, N35S, Y50F, G55R, S57D, S59T, D89E, S98T
VL: B1 VL
B12: PMX172VH/PMX272VH/PMX172VL (bispecific antibody, V domains shown)
VH 1: B1 VH 1
VH 2: B1 VH 2 with N52D, G54D
VL: B1 VL
B13: PMX172VH/PMX229VH/PMX172VL (bispecific antibody, V domains shown)
VH 1: B1 VH 1
VH 2: EVQLVESGGDLVKPGGSLRLSCVASGITFSRYHMSWVRQAPGKGLQWVAFINTGRSSTNYADAVAGRFTISRDNAKNTLYLQMNGLTVEDTAVYYCSTLDYWGQGTLVTVSS
VL: B1 VL
B14: PMX172VH/PMX268VH/PMX172VL (bispecific antibody, V domains shown)
VH 1: B1 VH 1
VH 2: EVQLVESGGDLMKPGGSLRLSCVASGITFSGYHMSWVRQAPGKGLQWVAFINSGRKNTAYADAVKGRFTISRDNAKNTLYLQMNSLRAEDTAIYYCTTLEFWGQGTLVTVSS
VL: B1 VL
B15: PMX159 in bispecific format (canine CD3 arm PMX159 x Rituximab arm, human IgG4PE knob-in-hole) (bispecific antibody)
heavy 1: ELTLQESGPGLVKPSQTLSLTCVVSGGSVTRSYYWNWIRQRPGRGLEWMGYWTGSTIYNPTFQGRISITADTAKSQFSLQLRSMTTEDTAMYFCAREGGKSLGAFAYWGQGTLVTVSSASTKGPSVFPLAPCSRSTSESTAALGCLVKDYFPEPVTVSWNSGALTSGVHTFPAVLQSSGLYSLSSVVTVPSSSLGTKTYTCNVDHKPSNTKVDKRVESKYGPPCPPCPAPEFEGGPSVFLFPPKPKDTLMISRTPEVTCVVVDVSQEDPEVQFNWYVDGVEVHNAKTKPREEQFNSTYRVVSVLTVLHQDWLNGKEYKCKVSNKGLPSSIEKTISKAKGQPREPQVYTLPPSQCEMTKNQVSLSCAVKGFYPSDIAVEWESNGQPENNYKTTPPVLDSDGSFFLVSRLTVDKSRWQEGNVFSCSVMHEALHNRFTQKSLSLSLGK
light 1: SYVLTQLPSKNVTLKQPAHITCGGDKIGSKNVHWYQQKLGQAPVMIIYYDSSRPTGIPERFSGANSGNTATLTISGALAEDEADYYCQVWDSSAKAAVFGGGTHLTVLRTVAAPSVFIFPPSDEQLKSGTASVVCLLNNFYPREAKVQWKVDNALQSGNSQESVTEQDSKDSTYSLSSTLTLSKADYEKHKVYACEVTHQGLSSPVTKSFNRGEC
heavy 2: not shown
light 2: QIVLSQSPAILSASPGEKVTMTCRASSSVSYIHWFQQKPGSSPKPWIYATSNLASGVPVRFSGSGSGTSYSLTISRVEAEDAATYYCQQWTSNPPTFGGGTKLEIKRTVAAPSVFIFPPSDEQLKSGTASVVCLLNNFYPREAKVQWKVDNALQSGNSQESVTEQDSKDSTYSLSSTLTLSKADYEKHKVYACEVTHQGLSSPVTKSFNRGEC
B16: PMX160 in bispecific format (canine CD3 arm PMX160 x Rituximab arm, human IgG4PE knob-in-hole) (bispecific antibody)
heavy 1: EVQMVESGGDLVKPGGSLRFSCVASGFTFSSYHMSWVRQAPGKGLQWVAYINSGGSRTSYADAVKGRFTISRDNAKNTLYLQMNSLRAEDTAVYYCASGRSPPPLGSFDYGLDYWGHGTSLFVSSASTKGPSVFPLAPCSRSTSESTAALGCLVKDYFPEPVTVSWNSGALTSGVHTFPAVLQSSGLYSLSSVVTVPSSSLGTKTYTCNVDHKPSNTKVDKRVESKYGPPCPPCPAPEFEGGPSVFLFPPKPKDTLMISRTPEVTCVVVDVSQEDPEVQFNWYVDGVEVHNAKTKPREEQFNSTYRVVSVLTVLHQDWLNGKEYKCKVSNKGLPSSIEKTISKAKGQPREPQVYTLPPSQCEMTKNQVSLSCAVKGFYPSDIAVEWESNGQPENNYKTTPPVLDSDGSFFLVSRLTVDKSRWQEGNVFSCSVMHEALHNRFTQKSLSLSLGK
light 1: B15 light 1 with K26N, N31S, M45L, A97W, G101E, H104Q
heavy 2: not shown
light 2: B15 light 2
B17: PMX162 in bispecific format (canine CD3 arm PMX162 x Rituximab arm, human IgG4PE knob-in-hole) (bispecific antibody)
heavy 1: EMQLVESGGDLVKPGGSLRLSCVASGFTFSTYHMSWVRQAPGKGLQWVAYSNSGGTRTYYADAVKGRFTISRDNVKNTLYLQMNSLRAEDTAVYYCASEGSGGGRYGFKDYGMDYWGHGTSLFVSTASTKGPSVFPLAPCSRSTSESTAALGCLVKDYFPEPVTVSWNSGALTSGVHTFPAVLQSSGLYSLSSVVTVPSSSLGTKTYTCNVDHKPSNTKVDKRVESKYGPPCPPCPAPEFEGGPSVFLFPPKPKDTLMISRTPEVTCVVVDVSQEDPEVQFNWYVDGVEVHNAKTKPREEQFNSTYRVVSVLTVLHQDWLNGKEYKCKVSNKGLPSSIEKTISKAKGQPREPQVYTLPPSQCEMTKNQVSLSCAVKGFYPSDIAVEWESNGQPENNYKTTPPVLDSDGSFFLVSRLTVDKSRWQEGNVFSCSVMHEALHNRFTQKSLSLSLGK
light 1: B15 light 1 with K26N, N31S, M45L, A97W, G101E, H104Q
heavy 2: not shown
light 2: B15 light 2

How the values were obtained:
[1] = molecular target: T1, canine CD20 on cells (HEK293, MDCK II, CLBL-1 or native B cells) (canine, UniProt Q3C2E2 1-297); assay: cell-based or functional assay
T1 chain: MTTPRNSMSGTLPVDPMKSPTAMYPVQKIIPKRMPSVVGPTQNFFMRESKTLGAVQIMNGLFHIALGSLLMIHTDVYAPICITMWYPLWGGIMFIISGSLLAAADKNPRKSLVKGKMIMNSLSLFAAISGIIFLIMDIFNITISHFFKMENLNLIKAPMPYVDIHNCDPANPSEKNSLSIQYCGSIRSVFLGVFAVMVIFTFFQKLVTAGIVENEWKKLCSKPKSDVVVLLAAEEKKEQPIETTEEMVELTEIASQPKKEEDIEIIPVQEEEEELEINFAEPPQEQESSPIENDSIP

[2] = molecular target: T1, canine CD20 on cells (HEK293, MDCK II, …); assay: cell-based or functional assay
[3] = molecular target: T1, canine CD20 on cells (HEK293, MDCK II, …); assay: cell-based or functional assay
[4] = molecular target: T2, canine CD3εδ-Fc (heterodimer of canine CD3ε-hIgG4PE-knob and canine CD3δ-hIgG4PE-hole) (canine); assay: SPR Biacore 8K, single cycle, CD3εδ-Fc amine-coupled on CM5, antibody at 16.5, 33 and 66 nM
T2 construct: also called CD3εδ-Fc fusion protein; copies: 1 + 1
T2 sequence (chain, as listed by the source mutant limits assumed): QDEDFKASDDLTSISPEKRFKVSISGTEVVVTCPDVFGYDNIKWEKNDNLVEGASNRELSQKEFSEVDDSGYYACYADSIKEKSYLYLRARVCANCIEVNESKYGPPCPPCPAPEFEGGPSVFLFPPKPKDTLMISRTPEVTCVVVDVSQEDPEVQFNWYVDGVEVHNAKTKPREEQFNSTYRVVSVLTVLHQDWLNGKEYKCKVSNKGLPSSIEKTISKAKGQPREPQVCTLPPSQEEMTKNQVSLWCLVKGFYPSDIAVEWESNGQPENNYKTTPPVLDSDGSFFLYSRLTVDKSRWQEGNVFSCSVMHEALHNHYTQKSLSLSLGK
Procedure: Candidates CD3 bispecific antibodies were also screened for their ability to bind canine CD3εδ-Fc using surface plasmon resonance (SPR) using a Biacore 8K (Cytiva). Canine CD3εδ-Fc was covalently bound by amine coupling to the surface of a CM5 chip (Cytiva). CHO cell supernatant was diluted to 66, 33 and 16.5 nM in HBS-EP+ buffer and run on the chip single cycle kinetic protocol. Data was analysed using the dedicated software (Biacore Insight Evaluation Software).

Row | Binder | EC50 (nM), bispecific killing (FIG. 15) [2] [nM] | EC50 (nM), endogenous B cell depletion in PBMC (FIG. 16A) [3] [nM] | other results
1 | B1 | – | – | EC50 (nM), bispecific killing (FIG. 13E) [1]: 15.7 nM
2 | B2 | 0.361 | 0.828 | EC50 (nM), bispecific killing (FIG. 13E) [1]: 2.88 nM
3 | B3 | – | – | EC50 (nM), bispecific killing (FIG. 13E) [1]: 9.63 nM
4 | B4 | 0.129 | 0.247 | –
5 | B5 | 0.121 | 0.183 | –
6 | B6 | 0.188 | 0.307 | –
7 | B7 | 0.412 | – | –
8 | B8 | 0.445 | – | –
9 | B9 | 0.153 | 0.075 | –
10 | B10 | – | – | EC50 (nM), bispecific killing (FIG. 13E) [1]: 2.59 nM
11 | B11 | 0.341 | – | –
12 | B12 | – | – | EC50 (nM), bispecific killing (FIG. 13E) [1]: 5.87 nM
13 | B13 | 1.02 | – | –
14 | B14 | – | 0.764 | –
15 | B15 | – | – | binding result [4]: binds
16 | B16 | – | – | binding result [4]: binds
17 | B17 | – | – | binding result [4]: binds
